Source: PMC11643046 (bioRxiv, 2025)

Target: the molecule itself
Assay: SDS-PAGE

Row | Protein | stoichiometry N | binding result
1 | Mycobacterium tuberculosis CrgA (Rv0011c), wild type, full length, with C-terminal His tag (natural protein) MMPKSKVRKKNDFTVSAVSRTPMKVKVGPSSVWFVSLFIGLMLIGLIWLMVFQLAAIGSQAPTALNWMAQLGPWNYAIAFAFMITGLLLTMRWH | 2 | –
2 | CrgA G44V mutant (natural protein) MMPKSKVRKKNDFTVSAVSRTPMKVKVGPSSVWFVSLFIGLMLIVLIWLMVFQLAAIGSQAPTALNWMAQLGPWNYAIAFAFMITGLLLTMRWH | – | binds
3 | CrgA A78V mutant (natural protein) MMPKSKVRKKNDFTVSAVSRTPMKVKVGPSSVWFVSLFIGLMLIGLIWLMVFQLAAIGSQAPTALNWMAQLGPWNYAIVFAFMITGLLLTMRWH | – | binds
4 | CrgA G39V mutant (natural protein) MMPKSKVRKKNDFTVSAVSRTPMKVKVGPSSVWFVSLFIVLMLIGLIWLMVFQLAAIGSQAPTALNWMAQLGPWNYAIAFAFMITGLLLTMRWH | – | binds
5 | CrgA N74A mutant (natural protein) MMPKSKVRKKNDFTVSAVSRTPMKVKVGPSSVWFVSLFIGLMLIGLIWLMVFQLAAIGSQAPTALNWMAQLGPWAYAIAFAFMITGLLLTMRWH | – | binds
